Key:
[1] = test system: primary stellate cells (HSC); test: Self-activation of primary stellate cells (HSC) cultured in vitro, related gene expression by RT-PCR; type: cell-based; conditions: ECM1 protein 50 µg/ml, cRGD 10 µg/ml; WT mouse HSC cultured in vitro 2 weeks, vs unrelated IgG (NC)
Procedure: B: Primary stellate cells (HSC) from the liver of wild-type mouse (WT) are isolated and cultured in vitro for 2 weeks. Recombinant mouse ECM1 protein ([…]), cRGD ([…]) or unrelated IgG protein ([…]) are added to the culture medium as negative control (NC). Changing fresh culture medium every 3 days. Two weeks later, It is lysed with TRIZO and mRNA is extracted, and cDNA is obtained by reverse transcription. Finally, the expression of related genes is detected by RT-PCR.
The primary stellate cells (HSC) of the mouse liver will self-activate during in vitro culture. This is because of the change in culture conditions, the Latent TGF-β1 secreted by the cells will be activated by integrin αv on the cell surface to activate stellate cells (HSC). In this process, the addition of integrin αv inhibitor (cRGD) or TGF-β1 neutralizing antibody will inhibit the self-activation of stellate cells (HSC).
Therefore, primary stellate cells (HSC) from the liver of wild-type mice (WT) were isolated and cultured in vitro for 2 weeks. Recombinant mouse ECM1 protein ([…]), cRGD ([…]) or unrelated IgG protein ([…]) were added to the culture medium as negative control (NC). Changing fresh culture solution every 3 days. […] Finally, the expression of related genes was detected by RT-PCR to determine the activation degree of primary stellate cells (HSC).

[2] = test system: Latent TGF-β1 activation on the surface of stellate cells (HSC); test: TGF-β1 activity reporter co-culture of primary HSC with NIH-3T3 luciferase reporter cells; type: cell-based; conditions: 50 g/ml in culture medium, 16 hours of culture, WT mouse HSC with NIH-3T3 reporter cells, vs unrelated IgG (NC)
Procedure: A: Primary stellate cells (HSC) from the liver of wild-type mice (WT) are isolated and co-cultured with NIH-3T3 cells containing the TGF-β1 activity reporter system. Recombinant mouse ECM1 protein ([…]), cRGD ([…]) or unrelated IgG protein ([…]) are added to the culture medium as negative control (NC). After 16 hours of the culture, the cells are lysed, and Luciferase activity in the lysate is detected.
The process of Latent TGF-β1 activation to TGF-β1 is a transient effect. Activated TGF-β1 will bind to TGF-β1 receptor on the adjacent cell surface, phosphorylating the downstream SMAD protein, and then activating the downstream gene expression. In order to better detect the process of Latent TGF-β1 activation to TGF-β1, we used a co-culture system to detect the […] activation process that occurs on the surface of HSC stellate cells. A luciferase reporter gene was stably transfected into NIH-3T3 cells. There are 4 repeated SMAD binding sites in the upstream of this reporter gene. […]
Firstly, primary stellate cells (HSC) of wild-type mouse (WT) liver were isolated and co-cultured with NIH-3T3 cells containing TGF-β1 activity reporter system. […] After 16 hours of culture, the cells were lysed, and Luciferase activity in the lysate was detected. […]

Molecule | activation of stellate cells (HSC), expression of related genes by RT-PCR [1] | activation of Latent TGF-β1 on the surface of stellate cells (HSC), Luciferase activity [2]
cRGD [reference compound] | significantly inhibit | 
recombinant mouse ECM1 protein: Recombinant mouse extracellular matrix protein 1 added to the culture medium (protein, UniProt Q61508 20-559, looked up) Extracellular matrix protein 1: ASEGAFKASDQREMTPERLFQHLHEVGYAAPPSPPQTRRLRVDHSVTSLHDPPLFEEQREVQPPSSPEDIPVYEEDWPTFLNPNVDKAGPAVPQEAIPLQKEQPPPQVHIEQKEIDPPAQPQEEIVQKEVKPHTLAGQLPPEPRTWNPARHCQQGRRGVWGHRLDGFPPGRPSPDNLKQICLPERQHVIYGPWNLPQTGYSHLSRQGETLNVLETGYSRCCRCRSDTNRLDCLKLVWEDAMTQFCEAEFSVKTRPHLCCRLRGEERFSCFQKEAPRPDYLLRPCPVHQNGMSSGPQLPFPPGLPTPDNVKNICLLRRFRAVPRNLPATDAIQRQLQALTRLETEFQRCCRQGHNHTCTWKAWEGTLDGYCERELAIKTHPHSCCHYPPSPARDECFAHLAPYPNYDRDILTLDLSRVTPNLMGQLCGSGRVLSKHKQIPGLIQNMTIRCCELPYPEQACCGEEEKLAFIENLCGPRRNSWKDPALCCDLSPEDKQINCFNTNYLRNVALVAGDTGNATGLGEQGPTRGTDANPAPGSKEE | significantly inhibit | significantly inhibit

From US20220095596A1, “USE OF ECM1 GENE-KNOCKOUT MOUSE IN SCREENING OF ANTI-HEPATIC FIBROSIS DRUG” (CENTER FOR EXCELLENCE IN MOLECULAR CELL SCIENCE, CHINESE …, priority 2018, published 2022)
